Experimental data as given in paper PMC4225490, “Crystal structure of the γ-hydroxymuconic semialdehyde dehydrogenase from Pseudomonas sp. strainWBC-3, a key enzyme involved in para-Nitrophenol degradation” (BMC Structural Biology, 2013).

What was measured:
[1] = biological target: γ-hydroxymuconic semialdehyde dehydrogenase PnpE from Pseudomonas sp. strain WBC-3 (Pseudomonas sp. strain WBC-3); test: crystal structure; apo-PnpE, space group P21, 2.7 Å; eight monomers in the asymmetric unit; crystals grown from 20% PEG3350, 0.2 M KNO3 at 20°C
[2] = biological target: T1, PnpE, γ-hydroxymuconic semialdehyde dehydrogenase (Pseudomonas sp. WBC-3, UniProt C1I208); test: X-ray crystal structure, […] Å; format: binding; settings: co-crystallised with 1 mM NAD, 0.1 M Bicine pH 8.5, 20% PEG10000, 20 °C; cofactor site
T1 construct: recombinant His-tagged in E. coli BL21(DE3), pET29b NdeI/XhoI; Ni-NTA, Source-Q, Superdex-200; homodimer (four dimers per asymmetric unit)
T1 sequence (C1I208 1-487): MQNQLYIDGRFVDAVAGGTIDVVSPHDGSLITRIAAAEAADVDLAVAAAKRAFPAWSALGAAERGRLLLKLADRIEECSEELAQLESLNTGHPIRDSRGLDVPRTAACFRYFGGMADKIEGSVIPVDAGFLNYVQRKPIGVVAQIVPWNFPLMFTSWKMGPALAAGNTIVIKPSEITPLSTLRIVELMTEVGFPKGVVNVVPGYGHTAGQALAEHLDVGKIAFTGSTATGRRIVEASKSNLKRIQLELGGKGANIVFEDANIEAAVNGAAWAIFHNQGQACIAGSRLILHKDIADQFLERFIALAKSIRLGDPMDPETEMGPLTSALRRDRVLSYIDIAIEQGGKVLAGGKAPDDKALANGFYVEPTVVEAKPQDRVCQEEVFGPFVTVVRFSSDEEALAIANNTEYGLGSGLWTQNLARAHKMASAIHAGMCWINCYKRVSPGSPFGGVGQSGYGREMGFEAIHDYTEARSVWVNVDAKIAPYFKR

| stoichiometry N [1] | Molecule | X-ray crystal structure, 3.1 Å [2] |
| --- | --- | --- |
| 2 | γ-hydroxymuconic semialdehyde dehydrogenase PnpE from Pseudomonas sp. strain WBC-3 (enzyme) | – |
| – | NC(=O)c1ccc[n+]([C@@H]2O[C@H](COP(=O)(O)OP(=O)(O)OC[C@H]3O[C@@H](n4cnc5c(N)ncnc54)[C@H](O)[C@@H]3O)[C@@H](O)[C@H]2O)c1 [NAD] | In the PnpE-NAD complex structure, NAD is situated in a cleft of PnpE. |
